Source: patent US20190376053A1

What was measured:
[1] = molecular target: collagen fibril (porcine skin fiber, Nippi, Inc) (porcine); assay: collagen fibril binding assay (spin column, SDS-PAGE of the unbound protein, Scatchard plot)
[2] = molecular target: mini-collagen peptide H-Gly-Pro-Arg-Gly-(Pro-Hyp-Gly)12-NH2; assay: SPR (Biacore); ratio of KD, ColHS2bS3 = 1.00
[3] = molecular target: mini-collagen peptide H-Gly-Pro-Arg-Gly-(Pro-Hyp-Gly)12-NH2; assay: SPR (Biacore), peptide immobilized, equilibrium fit, apparent KD

| Substance | Kd [1] | Ratio [2] | Kd [3] |
| --- | --- | --- | --- |
| collagen-binding domain s3a derived from Clostridium histolyticum class I collagenase ColG (from UniProt Q9X721 886-1003) | 100 µM |  |  |
| tandem collagen-binding domain (s3a-s3b) derived from Clostridium histolyticum class I collagenase ColG (from UniProt Q9X721 886-1118) |  | 0.1 | 44.6 µM |
| collagen-binding domain s3b derived from Clostridium histolyticum class I collagenase ColG (from UniProt Q9X721 1003-1118) |  | 0.102 | 45.4 µM |
